Assay [1] concerns the target K63-linked diubiquitin (UniProt P0CG47). The experiment in a line: SEC.
For assay [2], the target named is diubiquitin G76C linked via K63, conjugated to BODIPY TMR C5-maleimide (UniProt P0CG47). Description: fluorescence polarisation.

In assay [1], “MyUb (G1080-R1131) (from UniProt Q9UM54 1080-1131) (domain or fragment)” returned a stoichiometry N (MyUb per diubiquitin) of 1. For “myosin VI 1050-1131 (from UniProt Q9UM54 1050-1131) (domain or fragment)”, in assay [2], the fold reduction in binding affinity compared to the MyUb domain alone amounted to 4 fold.
